The series has as its system Sprague-Dawley rats. The experiment in a line: Intravenous toxicity study: maximum tolerated dose after a single IV injection, 7-day observation. Format: in vivo, rat. The source says:
The objective of this study was to determine the maximum tolerated dose in test animals following a single parenteral administration, in this case an intravenous (IV) injection, of the drug delivery compositions to Sprague-Dawley rats followed by a 7-day observation period.
In this Example, drug delivery compositions were optimized to carry and deliver the active chemotherapeutic agent Paclitaxel (PTX at about 5%). (See, Table 5 infra). Briefly, under sterile conditions in a laminar flow cabinet sterile water for formation and injection purposes was added to the appropriate amount of drug deliver composition to provide concentrations of 350, 817, 1167, and 1750 mg/mL. The diluted drug deliver compositions were stirred, mixed, or vortexed as necessary to achieve sufficient distribution. The prepared drug deliver compositions were stored protect from light at ambient temperature. The final formulation for each concentration was passed through a 0.2 μm filter prior to administration. The target volume prepared for each dose was 1.55 mL. The actual volume dispensed post-filtering was recorded. Final formulations for administration can be used up to 4 hours after preparation.
Subjects in this Example consisted of age appropriate to weight intact male Sprague-Dawley rats. Various commercial sources of Sprague-Dawley rats are acceptable for supply of Subject animals. Maximum Subject animal weight at initiation of the administrations was 330 gm while minimum weight was 260 gm. Subject animals were housed, feed, provided watered ad libitum, and observed according to standard animal husbandry protocols. Subject animals were excluded for any observable disease or injury that could affect study outcome. […]

For “[NP(MPEG550)3(Lys-OEt)(AA)(PTX)]n [PETTAX-121]”, the “Clinical results: morbidity / euthanasia” value (Group 4: single slow bolus IV 8750 mg/kg PETTAX-121 (PTX 437.5 mg/kg), 1 male rat) is listed as “euthanized 20 hours after administration due to observed morbidity”. Also, under “Groups 1-3: single slow bolus IV 1750, 4083 and 5833 mg/kg PETTAX-121 (PTX 87.5, 204.2, 291.7 mg/kg), 1 male rat per group, 7-day observation”, the “Clinical results: tolerability / adverse reactions” value is recorded as “tolerated their respective administration well with no observed adverse reactions or clinically significant observations”. For the same substance, the “Clinical results: physical changes” value (Groups 1-3: single slow bolus IV 1750, 4083 and 5833 mg/kg PETTAX-121, 1 male rat per group, 7-day observation) is given as “no significant physical changes”.

The values are drawn from patent publication US12414933B2, “Polyphosphazene drug carriers” (ONSELEX PHARMACEUTICALS, INC., priority 2019, dated 2025).
